In patent publication JP2009045066A (dated 2009) one finds Ka data, which are given here for 1 molecule.

The target of this test is T1, 天然のヒトCD4(細胞表面) (human, UniProt P01730 26-458).
T1 construct: whole, on cells; also called nCD4; CD4 on SupT1 cells
The test can be described thus: flow cytometry on SupT1 cells, serial dilutions, half-maximal fluorescence. In general terms: Flow cytometry measures light scatter and fluorescence of single cells or particles in a stream.

B1: 4D1 (antibody, V domains shown)
VH: EVQLVQSGAEVKKPGESLKISCKGSGYSFTGYWIGWVRQMPGKGLEWMGIIYPGDSDTTYSPSFQGQVTISADKSISTAYLQWSSLKASDTAMYYCARDQLGLFDYWGQGTLVTVSS
VL: DIQMTQSPSSLSASVGDRVTITCRASQGISSWLAWYQQKPEKAPKSLIYSASSLQSGVPSRFSGSGSGTDFTLTISSLQPEDFATYYCQQYDSYPYTFGQGTKLEIK
Turning to B1, the Ka is greater than 1e+09 M⁻¹.
